{"source": "patent US11419921B2", "about": "“Methods of treating neurological disorders” (EnClear Therapies, Inc., priority 2018, dated 2022)", "tested_on": "(GR)10", "experiment": "Cleavage of (GR)10 by enzymes in solution (PBS with CaCl2 and MgCl2), LC/MS of GR repeats", "assay_type": "biochemical", "details": "for (GR)1 concentration / (GR)2 concentration / (GR)4 concentration / (GR)6 concentration / (GR)8 concentration / (GR)10 concentration: (GR)10 50 μM; for (GR)1 / (GR)2 / (GR)3 / (GR)4 / (GR)5 / (GR)6 / (GR)8 / (GR)10: PBS, normalized", "experimental": "• (GR)10 dipeptide (also (GR)8, (GR)6, (GR)4, (GR)2) were synthetized by solid-phase synthesis by CanPeptide; All peptides are uncapped and supplied lyophilized with TFA as counter ions. Purity was always above 95%. • Buffer: PBS buffer containing CaCl2 and MgCl2. • Stock solution of enzyme (e.g., 10 mg/mL) (prepared per manufacturer instructions) in PBS. Activators added as necessary. • Working solution of protein of the desired concentration (e.g., 100 μg/mL) prepared immediately before use by diluting the stock solution (e.g., 5 μL of 10 mg/mL stock solution) in PBS buffer (e.g., in 495 μL of PBS). Exemplary Procedure Using 50 μM Concentrations of (GR)10\n25 μL of a 100 μM solution of (GR)10 was added to each well of a 96-well plate. 25 μL of a solution of enzyme (two times the desired final enzyme concentration) was added, and the plates were incubated at room temperature. At the specified time points (5 minutes, 10 minutes, 30 minutes, 60 minutes, and 180 minutes) 2.5 μL of a 10% TFA solution were added to stop the reaction. For the time 0 min well, the TFA was added to the well before addition of the enzyme. After last time point, all samples were further diluted with 150 μL of dilution solution. The quenched reaction mixtures were analyzed by LC/MS to determine the concentration of GR repeats of different lengths.\nThe chromatography and mass spectrometry conditions utilized are shown in Table 2 and Table 3, respectively.", "data": [{"molecule": "Clostripain: sulfhydryl protease cleaving at the C-terminus of arginine residues; in Table 23 also immobilized on agarose resin (protein) NKNQKVTIMYYCDADNNLEGSLLNDIEEMKTGYKDSPNLNLIALVDRSPRYSSDEKVLGEDFSDTRLYKIEHNKANRLDGKNEFPEISTTSKYEANMGDPEVLKKFIDYCKSNYEADKYVLIMANHGGGAREKSNPRLNRAICWDDSNLDKNGEADCLYMGEISDHLTEKQSVDLLAFDACLMGTAEVAYQYRPGNGGFSADTLVASSPVVWGPGFKYDKIFDRIKAGGGTNNEDDLTLGGKEQNFDPATITNEQLGALFVEEQRDSTHANGRYDQHLSFYDLKKAESVKRAIDNLAVNLSNENKKSEIEKLRGSGIHTDLMHYFDEYSEGEWVEYPYFDVYDLCEKINKSENFSSKTKDLASNAMNKLNEMIVYSFGDPSNNFKEGKNGLSIFLPNGDKKYSTYYTSTKIPHWTMQSWYNSIDTVKYGLNPYGKLSWCKDGQDPEINKVGNWFELLDSWFDKTNDVTGGVNHYQW", "values": [{"measurement": "(GR)1 concentration", "setting": "enzyme 2.5 μg/mL, 0 min", "value": "BLQ"}, {"measurement": "(GR)2 concentration", "setting": "enzyme 2.5 μg/mL, 0 min", "value": "BLQ"}, {"measurement": "(GR)4 concentration", "setting": "enzyme 2.5 μg/mL, 0 min", "value": "BLQ"}, {"measurement": "(GR)6 concentration", "setting": "enzyme 2.5 μg/mL, 0 min", "value": "BLQ"}, {"measurement": "(GR)8 concentration", "setting": "enzyme 2.5 μg/mL, 0 min", "value": 0.7, "unit": "µM"}, {"measurement": "(GR)10 concentration", "setting": "enzyme 2.5 μg/mL, 0 min", "value": 39.7, "unit": "µM"}, {"measurement": "(GR)1 concentration", "setting": "enzyme 2.5 μg/mL, 5 min", "value": 25.6, "unit": "µM"}, {"measurement": "(GR)2 concentration", "setting": "enzyme 2.5 μg/mL, 5 min", "value": 8.7, "unit": "µM"}, {"measurement": "(GR)4 concentration", "setting": "enzyme 2.5 μg/mL, 5 min", "value": 6.7, "unit": "µM"}, {"measurement": "(GR)6 concentration", "setting": "enzyme 2.5 μg/mL, 5 min", "value": 3.6, "unit": "µM"}, {"measurement": "(GR)8 concentration", "setting": "enzyme 2.5 μg/mL, 5 min", "value": 2.2, "unit": "µM"}, {"measurement": "(GR)10 concentration", "setting": "enzyme 2.5 μg/mL, 5 min", "value": 5.4, "unit": "µM"}, {"measurement": "(GR)1 concentration", "setting": "enzyme 2.5 μg/mL, 10 min", "value": 35.3, "unit": "µM"}, {"measurement": "(GR)2 concentration", "setting": "enzyme 2.5 μg/mL, 10 min", "value": 14.0, "unit": "µM"}, {"measurement": "(GR)4 concentration", "setting": "enzyme 2.5 μg/mL, 10 min", "value": 9.8, "unit": "µM"}, {"measurement": "(GR)6 concentration", "setting": "enzyme 2.5 μg/mL, 10 min", "value": 4.3, "unit": "µM"}, {"measurement": "(GR)8 concentration", "setting": "enzyme 2.5 μg/mL, 10 min", "value": 1.8, "unit": "µM"}, {"measurement": "(GR)10 concentration", "setting": "enzyme 2.5 μg/mL, 10 min", "value": 2.3, "unit": "µM"}, {"measurement": "(GR)1 concentration", "setting": "enzyme 2.5 μg/mL, 30 min", "value": 72.9, "unit": "µM"}, {"measurement": "(GR)2 concentration", "setting": "enzyme 2.5 μg/mL, 30 min", "value": 36.8, "unit": "µM"}, {"measurement": "(GR)4 concentration", "setting": "enzyme 2.5 μg/mL, 30 min", "value": 7.5, "unit": "µM"}, {"measurement": "(GR)6 concentration", "setting": "enzyme 2.5 μg/mL, 30 min", "value": 1.4, "unit": "µM"}, {"measurement": "(GR)8 concentration", "setting": "enzyme 2.5 μg/mL, 30 min", "value": "BLQ"}, {"measurement": "(GR)10 concentration", "setting": "enzyme 2.5 μg/mL, 30 min", "value": "BLQ"}, {"measurement": "(GR)1 concentration", "setting": "enzyme 2.5 μg/mL, 60 min", "value": 148.6, "unit": "µM"}, {"measurement": "(GR)2 concentration", "setting": "enzyme 2.5 μg/mL, 60 min", "value": 62.1, "unit": "µM"}, {"measurement": "(GR)4 concentration", "setting": "enzyme 2.5 μg/mL, 60 min", "value": 1.9, "unit": "µM"}, {"measurement": "(GR)6 concentration", "setting": "enzyme 2.5 μg/mL, 60 min", "value": "BLQ"}, {"measurement": "(GR)8 concentration", "setting": "enzyme 2.5 μg/mL, 60 min", "value": "BLQ"}, {"measurement": "(GR)10 concentration", "setting": "enzyme 2.5 μg/mL, 60 min", "value": "BLQ"}, {"measurement": "(GR)1 concentration", "setting": "enzyme 2.5 μg/mL, 120 min", "value": 325.0, "unit": "µM"}, {"measurement": "(GR)2 concentration", "setting": "enzyme 2.5 μg/mL, 120 min", "value": "BLQ"}, {"measurement": "(GR)4 concentration", "setting": "enzyme 2.5 μg/mL, 120 min", "value": "BLQ"}, {"measurement": "(GR)6 concentration", "setting": "enzyme 2.5 μg/mL, 120 min", "value": "BLQ"}, {"measurement": "(GR)8 concentration", "setting": "enzyme 2.5 μg/mL, 120 min", "value": "BLQ"}, {"measurement": "(GR)10 concentration", "setting": "enzyme 2.5 μg/mL, 120 min", "value": "BLQ"}, {"measurement": "(GR)1 concentration", "setting": "enzyme 10 μg/mL, 0 min", "value": "BLQ"}, {"measurement": "(GR)2 concentration", "setting": "enzyme 10 μg/mL, 0 min", "value": "BLQ"}, {"measurement": "(GR)4 concentration", "setting": "enzyme 10 μg/mL, 0 min", "value": "BLQ"}, {"measurement": "(GR)6 concentration", "setting": "enzyme 10 μg/mL, 0 min", "value": "BLQ"}, {"measurement": "(GR)8 concentration", "setting": "enzyme 10 μg/mL, 0 min", "value": 0.6, "unit": "µM"}, {"measurement": "(GR)10 concentration", "setting": "enzyme 10 μg/mL, 0 min", "value": 37.9, "unit": "µM"}, {"measurement": "(GR)1 concentration", "setting": "enzyme 10 μg/mL, 5 min", "value": 99.0, "unit": "µM"}, {"measurement": "(GR)2 concentration", "setting": "enzyme 10 μg/mL, 5 min", "value": 51.8, "unit": "µM"}, {"measurement": "(GR)4 concentration", "setting": "enzyme 10 μg/mL, 5 min", "value": 5.4, "unit": "µM"}, {"measurement": "(GR)6 concentration", "setting": "enzyme 10 μg/mL, 5 min", "value": 0.6, "unit": "µM"}, {"measurement": "(GR)8 concentration", "setting": "enzyme 10 μg/mL, 5 min", "value": "BLQ"}, {"measurement": "(GR)10 concentration", "setting": "enzyme 10 μg/mL, 5 min", "value": 0.8, "unit": "µM"}, {"measurement": "(GR)1 concentration", "setting": "enzyme 10 μg/mL, 10 min", "value": 145.9, "unit": "µM"}, {"measurement": "(GR)2 concentration", "setting": "enzyme 10 μg/mL, 10 min", "value": 62.2, "unit": "µM"}, {"measurement": "(GR)4 concentration", "setting": "enzyme 10 μg/mL, 10 min", "value": 1.8, "unit": "µM"}, {"measurement": "(GR)6 concentration", "setting": "enzyme 10 μg/mL, 10 min", "value": "BLQ"}, {"measurement": "(GR)8 concentration", "setting": "enzyme 10 μg/mL, 10 min", "value": "BLQ"}, {"measurement": "(GR)10 concentration", "setting": "enzyme 10 μg/mL, 10 min", "value": "BLQ"}, {"measurement": "(GR)1 concentration", "setting": "enzyme 10 μg/mL, 30 min", "value": 336.9, "unit": "µM"}, {"measurement": "(GR)2 concentration", "setting": "enzyme 10 μg/mL, 30 min", "value": "BLQ"}, {"measurement": "(GR)4 concentration", "setting": "enzyme 10 μg/mL, 30 min", "value": "BLQ"}, {"measurement": "(GR)6 concentration", "setting": "enzyme 10 μg/mL, 30 min", "value": "BLQ"}, {"measurement": "(GR)8 concentration", "setting": "enzyme 10 μg/mL, 30 min", "value": "BLQ"}, {"measurement": "(GR)10 concentration", "setting": "enzyme 10 μg/mL, 30 min", "value": "BLQ"}, {"measurement": "(GR)1 concentration", "setting": "enzyme 10 μg/mL, 60 min", "value": 340.3, "unit": "µM"}, {"measurement": "(GR)2 concentration", "setting": "enzyme 10 μg/mL, 60 min", "value": "BLQ"}, {"measurement": "(GR)4 concentration", "setting": "enzyme 10 μg/mL, 60 min", "value": "BLQ"}, {"measurement": "(GR)6 concentration", "setting": "enzyme 10 μg/mL, 60 min", "value": "BLQ"}, {"measurement": "(GR)8 concentration", "setting": "enzyme 10 μg/mL, 60 min", "value": "BLQ"}, {"measurement": "(GR)10 concentration", "setting": "enzyme 10 μg/mL, 60 min", "value": "BLQ"}, {"measurement": "(GR)1 concentration", "setting": "enzyme 10 μg/mL, 120 min", "value": 355.8, "unit": "µM"}, {"measurement": "(GR)2 concentration", "setting": "enzyme 10 μg/mL, 120 min", "value": "BLQ"}, {"measurement": "(GR)4 concentration", "setting": "enzyme 10 μg/mL, 120 min", "value": "BLQ"}, {"measurement": "(GR)6 concentration", "setting": "enzyme 10 μg/mL, 120 min", "value": "BLQ"}, {"measurement": "(GR)8 concentration", "setting": "enzyme 10 μg/mL, 120 min", "value": "BLQ"}, {"measurement": "(GR)10 concentration", "setting": "enzyme 10 μg/mL, 120 min", "value": "BLQ"}, {"measurement": "(GR)1", "setting": "in solution - 5 min reaction", "value": 82.6, "unit": "µM"}, {"measurement": "(GR)2", "setting": "in solution - 5 min reaction", "value": 106.2, "unit": "µM"}, {"measurement": "(GR)3", "setting": "in solution - 5 min reaction", "value": 39.1, "unit": "µM"}, {"measurement": "(GR)4", "setting": "in solution - 5 min reaction", "value": 28.6, "unit": "µM"}, {"measurement": "(GR)5", "setting": "in solution - 5 min reaction", "value": 12.7, "unit": "µM"}, {"measurement": "(GR)6", "setting": "in solution - 5 min reaction", "value": 8.4, "unit": "µM"}, {"measurement": "(GR)8", "setting": "in solution - 5 min reaction", "value": 0.0, "unit": "µM"}, {"measurement": "(GR)10", "setting": "in solution - 5 min reaction", "value": 12.4, "unit": "µM"}, {"measurement": "(GR)1", "setting": "in solution - 60 min reaction", "value": 383.2, "unit": "µM"}, {"measurement": "(GR)2", "setting": "in solution - 60 min reaction", "value": 0.0, "unit": "µM"}, {"measurement": "(GR)3", "setting": "in solution - 60 min reaction", "value": 0.0, "unit": "µM"}, {"measurement": "(GR)4", "setting": "in solution - 60 min reaction", "value": 0.0, "unit": "µM"}, {"measurement": "(GR)5", "setting": "in solution - 60 min reaction", "value": 0.0, "unit": "µM"}, {"measurement": "(GR)6", "setting": "in solution - 60 min reaction", "value": 0.0, "unit": "µM"}, {"measurement": "(GR)8", "setting": "in solution - 60 min reaction", "value": 0.0, "unit": "µM"}, {"measurement": "(GR)10", "setting": "in solution - 60 min reaction", "value": 0.0, "unit": "µM"}]}]}
